{"source": "patent US20070149456A1", "about": "“Epithelial sodium channel inhibiting agents and uses therefor” (University of Pittsburgh, priority 2005, published 2007)", "target": "T1, mouse ENaC (Mus musculus, UniProt Q61180+Q9WU38+Q9WU39, DEL206-231)", "T1 construct": "expressed in transfected cells; host or cells: Xenopus laevis oocytes (cRNA injection)", "T1 sequence (Q61180 with tags, fused parts or gaps DEL206-231)": "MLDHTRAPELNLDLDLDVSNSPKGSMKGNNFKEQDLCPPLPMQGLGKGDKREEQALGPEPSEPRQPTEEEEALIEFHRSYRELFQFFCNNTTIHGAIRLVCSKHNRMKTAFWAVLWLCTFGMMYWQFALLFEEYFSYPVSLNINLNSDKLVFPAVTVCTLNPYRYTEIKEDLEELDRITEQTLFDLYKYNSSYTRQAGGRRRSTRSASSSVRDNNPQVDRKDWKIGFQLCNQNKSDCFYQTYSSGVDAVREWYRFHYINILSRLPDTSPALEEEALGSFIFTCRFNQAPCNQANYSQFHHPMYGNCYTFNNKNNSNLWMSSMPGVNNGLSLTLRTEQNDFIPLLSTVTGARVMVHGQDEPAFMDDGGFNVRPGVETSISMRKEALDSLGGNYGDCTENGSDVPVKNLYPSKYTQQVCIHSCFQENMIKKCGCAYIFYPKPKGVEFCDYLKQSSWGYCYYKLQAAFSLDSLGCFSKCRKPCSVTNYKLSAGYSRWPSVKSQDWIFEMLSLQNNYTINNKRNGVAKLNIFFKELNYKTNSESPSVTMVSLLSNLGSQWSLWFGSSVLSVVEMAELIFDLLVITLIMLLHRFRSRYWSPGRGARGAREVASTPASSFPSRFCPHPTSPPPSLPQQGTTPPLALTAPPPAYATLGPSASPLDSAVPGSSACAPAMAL", "T1 sequence (Q9WU38 1-638)": "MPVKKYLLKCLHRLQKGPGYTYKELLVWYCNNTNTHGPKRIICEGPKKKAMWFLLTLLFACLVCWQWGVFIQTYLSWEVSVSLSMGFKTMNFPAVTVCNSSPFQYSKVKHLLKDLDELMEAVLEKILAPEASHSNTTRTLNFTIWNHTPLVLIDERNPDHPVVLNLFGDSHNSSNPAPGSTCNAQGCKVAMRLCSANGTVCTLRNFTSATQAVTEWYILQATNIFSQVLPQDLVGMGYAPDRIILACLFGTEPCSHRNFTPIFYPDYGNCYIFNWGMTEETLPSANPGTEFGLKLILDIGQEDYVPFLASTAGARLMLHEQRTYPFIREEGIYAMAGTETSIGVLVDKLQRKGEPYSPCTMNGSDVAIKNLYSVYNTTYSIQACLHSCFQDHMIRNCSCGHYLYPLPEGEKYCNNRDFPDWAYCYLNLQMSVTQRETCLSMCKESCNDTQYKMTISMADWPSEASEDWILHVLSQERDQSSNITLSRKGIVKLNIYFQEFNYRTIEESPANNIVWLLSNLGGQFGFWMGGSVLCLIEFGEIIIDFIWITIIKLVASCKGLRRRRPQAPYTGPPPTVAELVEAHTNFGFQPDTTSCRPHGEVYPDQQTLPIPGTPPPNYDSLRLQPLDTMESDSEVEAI", "T1 sequence (Q9WU39 1-655)": "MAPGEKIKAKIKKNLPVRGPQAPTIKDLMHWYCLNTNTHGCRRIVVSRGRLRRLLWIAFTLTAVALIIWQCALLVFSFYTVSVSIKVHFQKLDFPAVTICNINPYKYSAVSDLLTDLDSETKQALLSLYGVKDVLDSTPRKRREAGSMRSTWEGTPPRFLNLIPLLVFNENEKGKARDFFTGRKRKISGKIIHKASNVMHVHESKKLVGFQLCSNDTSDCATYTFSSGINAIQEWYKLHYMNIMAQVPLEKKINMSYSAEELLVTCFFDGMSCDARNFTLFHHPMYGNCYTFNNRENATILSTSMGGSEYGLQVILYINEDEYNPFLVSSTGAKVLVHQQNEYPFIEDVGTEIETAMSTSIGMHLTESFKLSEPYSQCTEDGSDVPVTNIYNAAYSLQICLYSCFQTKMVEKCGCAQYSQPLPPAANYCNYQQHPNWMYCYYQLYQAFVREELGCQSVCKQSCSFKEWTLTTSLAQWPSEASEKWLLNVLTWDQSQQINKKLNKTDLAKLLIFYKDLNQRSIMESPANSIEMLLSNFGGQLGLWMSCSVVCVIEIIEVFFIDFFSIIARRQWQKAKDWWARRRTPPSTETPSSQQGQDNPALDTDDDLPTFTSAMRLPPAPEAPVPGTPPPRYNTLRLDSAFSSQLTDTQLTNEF", "experiment": "Two-electrode voltage clamp, amiloride-sensitive whole cell Na+ current in Xenopus oocytes expressing wild-type αβγ ENaC", "format": "cell-based", "settings": "peptide 10 μM (FIG. 3B)", "text": "Oocyte Expression—cRNAs for α, β, γ mouse ENaC (wild-type and mutant) subunits and mouse prostasin were synthesized with T3 or T7 m-Message mMachineTM (Ambion, Austin, Tex.). Subunits carrying furin cleavage consensus site mutations and the corresponding wild-type subunits have amino-terminal HA and carboxyl-terminal V5 tags (Hughey, R. P., Bruns, J. B., Kinlough, C. L., Harkleroad, K. L., Tong, Q., Carattino, M. D., Johnson, J. P., Stockand, J. D., and Kleyman, T. R. (2004) J. Biol. Chem. 279, 18111-18114 18). Stage V-VI Xenopus laevis oocytes were pretreated with 1.5 mg/ml of type IV collagenase and injected with 0.5-2 ng of cRNA/subunit. Injected oocytes were maintained as previously reported (Carattino, M. D., Hill, W. G., and Kleyman, T. R. (2003), Arachidonic Acid Regulates Surface Expression of Epithelial Sodium Channels, J Biol. Chem. 278, 36202-36213 29).\nTwo-electrode Voltage Clamp—Two-electrode voltage clamp (TEV) was performed as previously described (Carattino, M. D., Hill, W. G., and Kleyman, T. R. (2003) J Biol. Chem. 278, 36202-36213 29). The extracellular solution (TEV solution) was (in mM): 110 NaCl, 2 KCl, 1.54 CaCl2, 10 HEPES, pH 7.4, or otherwise as indicated. […] Experiments with oocytes co-expressing ENaC and prostasin and the corresponding controls were performed in the presence of aprotinin (1 μM) to impede any potential degradation of α-26 by prostasin.\nData and Statistical Analyses—and mean time of inhibition are expressed as the mean with a 95% confidence interval (CI); otherwise, data were expressed as the mean ±S.E. (n), where “n” equals the number of independent experiments analyzed. IC50 was estimated from normalized currents plotted as a function of the peptide concentration fitted, as shown in Equation 1 y=t/(1+10^(logX−log/C50)) (Eq. 1) where y is the response variable, X is the concentration of peptide, and IC50 is the concentration of peptide that provokes a response half way between the baseline (t) and maximum response. […] Results", "data": [{"sequence": "DLEGALPHPLQELETPPPPNPAESAE (Ac-DLEGALPHPLQELETPPPPNPAESAE-NH2) [R/E]", "values": [{"measurement": "block of ENaC currents by related peptides", "value": "significant reduction in the block"}]}, {"sequence": "DLRGALAHALQRLRTAAAANAARSAR (Ac-DLRGALAHALQRLRTAAAANAARSAR-NH2) [P/A]", "values": [{"measurement": "block of ENaC currents by related peptides", "value": "significant reduction in the block"}]}]}
